Molecular target: HLA-A2 on T2 cells
Experiment: T2 HLA-stabilization assay, HLA-A2 level by flow cytometry
Conditions: remark: other sources report otherwise

Question: For IISAVVGIL [GP2 peptide from HER2/neu], which mean fluorescence intensity (mean fluorescence intensity) is on record?
Answer: Its mean fluorescence intensity (mean fluorescence intensity) is 682.

Reference: US20080260745A1
